Reference: paper PMC3353419 (2013)

Molecular target: T1, Haptoglobin (Homo sapiens, UniProt P00738)
T1 chain: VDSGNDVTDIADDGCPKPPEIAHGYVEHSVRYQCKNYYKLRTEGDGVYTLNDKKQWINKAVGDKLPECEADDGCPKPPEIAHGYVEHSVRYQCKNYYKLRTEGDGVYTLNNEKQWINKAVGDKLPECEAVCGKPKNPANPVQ
Experiment: SPR

B1: Hemoglobin (protein)
chain 1: not shown
chain 2: not shown
modifications: dextran (10 kDa)-linker at beta Cys93
- Kd: 0.823 nM
